Assay results from PMC6356446, “Involvement of N-glycan in Multiple Receptor Tyrosine Kinases Targeted by Ling-Zhi-8 for Suppressing HCC413 Tumor Progression” (Cancers, 2018).

Key:
Assay in all cases: cell-based or functional assay
c-Met = c-Met (human (endogenous in HCC413), UniProt P08581 25-1390, N-glycans (sites not given))
EGFR = EGFR (human (endogenous in HCC413), UniProt P00533 25-1210, N-glycans (sites not given))
HER3 = HER3 (human (endogenous in HCC413), UniProt P21860 20-1342, N-glycans (sites not given))
HER3, sequence (P21860 20-1342): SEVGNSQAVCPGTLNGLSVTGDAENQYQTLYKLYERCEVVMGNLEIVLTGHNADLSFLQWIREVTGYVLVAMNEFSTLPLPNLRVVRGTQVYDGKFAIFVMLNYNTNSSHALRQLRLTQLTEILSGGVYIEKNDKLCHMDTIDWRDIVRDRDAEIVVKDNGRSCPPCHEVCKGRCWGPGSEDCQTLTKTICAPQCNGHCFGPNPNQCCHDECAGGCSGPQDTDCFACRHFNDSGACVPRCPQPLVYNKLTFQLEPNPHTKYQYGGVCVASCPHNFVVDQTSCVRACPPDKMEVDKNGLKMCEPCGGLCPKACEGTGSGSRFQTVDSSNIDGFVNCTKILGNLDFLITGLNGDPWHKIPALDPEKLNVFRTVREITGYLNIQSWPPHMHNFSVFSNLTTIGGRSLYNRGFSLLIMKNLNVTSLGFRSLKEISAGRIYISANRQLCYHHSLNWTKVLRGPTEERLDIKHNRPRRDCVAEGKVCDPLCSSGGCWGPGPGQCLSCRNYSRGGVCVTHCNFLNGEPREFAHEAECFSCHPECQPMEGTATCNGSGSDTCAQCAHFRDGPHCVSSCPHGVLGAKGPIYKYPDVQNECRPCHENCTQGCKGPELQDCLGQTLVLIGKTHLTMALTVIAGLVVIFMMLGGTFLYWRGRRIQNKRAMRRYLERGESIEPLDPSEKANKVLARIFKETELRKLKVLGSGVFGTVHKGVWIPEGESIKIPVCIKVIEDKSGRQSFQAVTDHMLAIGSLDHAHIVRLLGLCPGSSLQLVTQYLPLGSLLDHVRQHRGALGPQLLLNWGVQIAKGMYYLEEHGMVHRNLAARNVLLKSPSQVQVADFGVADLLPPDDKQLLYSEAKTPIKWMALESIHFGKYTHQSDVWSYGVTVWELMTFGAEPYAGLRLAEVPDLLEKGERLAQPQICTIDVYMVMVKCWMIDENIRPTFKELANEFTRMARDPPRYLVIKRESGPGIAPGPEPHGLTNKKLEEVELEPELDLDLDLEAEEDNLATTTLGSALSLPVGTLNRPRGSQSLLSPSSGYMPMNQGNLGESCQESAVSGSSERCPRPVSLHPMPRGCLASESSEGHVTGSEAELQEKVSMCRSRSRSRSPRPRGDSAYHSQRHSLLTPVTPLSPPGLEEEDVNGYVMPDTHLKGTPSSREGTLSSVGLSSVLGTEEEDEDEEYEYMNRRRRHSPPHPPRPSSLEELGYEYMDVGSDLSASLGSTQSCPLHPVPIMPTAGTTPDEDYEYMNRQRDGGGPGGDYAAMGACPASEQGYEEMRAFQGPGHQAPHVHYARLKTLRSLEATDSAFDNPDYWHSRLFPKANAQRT

c-Met, sequence (P08581 25-1390): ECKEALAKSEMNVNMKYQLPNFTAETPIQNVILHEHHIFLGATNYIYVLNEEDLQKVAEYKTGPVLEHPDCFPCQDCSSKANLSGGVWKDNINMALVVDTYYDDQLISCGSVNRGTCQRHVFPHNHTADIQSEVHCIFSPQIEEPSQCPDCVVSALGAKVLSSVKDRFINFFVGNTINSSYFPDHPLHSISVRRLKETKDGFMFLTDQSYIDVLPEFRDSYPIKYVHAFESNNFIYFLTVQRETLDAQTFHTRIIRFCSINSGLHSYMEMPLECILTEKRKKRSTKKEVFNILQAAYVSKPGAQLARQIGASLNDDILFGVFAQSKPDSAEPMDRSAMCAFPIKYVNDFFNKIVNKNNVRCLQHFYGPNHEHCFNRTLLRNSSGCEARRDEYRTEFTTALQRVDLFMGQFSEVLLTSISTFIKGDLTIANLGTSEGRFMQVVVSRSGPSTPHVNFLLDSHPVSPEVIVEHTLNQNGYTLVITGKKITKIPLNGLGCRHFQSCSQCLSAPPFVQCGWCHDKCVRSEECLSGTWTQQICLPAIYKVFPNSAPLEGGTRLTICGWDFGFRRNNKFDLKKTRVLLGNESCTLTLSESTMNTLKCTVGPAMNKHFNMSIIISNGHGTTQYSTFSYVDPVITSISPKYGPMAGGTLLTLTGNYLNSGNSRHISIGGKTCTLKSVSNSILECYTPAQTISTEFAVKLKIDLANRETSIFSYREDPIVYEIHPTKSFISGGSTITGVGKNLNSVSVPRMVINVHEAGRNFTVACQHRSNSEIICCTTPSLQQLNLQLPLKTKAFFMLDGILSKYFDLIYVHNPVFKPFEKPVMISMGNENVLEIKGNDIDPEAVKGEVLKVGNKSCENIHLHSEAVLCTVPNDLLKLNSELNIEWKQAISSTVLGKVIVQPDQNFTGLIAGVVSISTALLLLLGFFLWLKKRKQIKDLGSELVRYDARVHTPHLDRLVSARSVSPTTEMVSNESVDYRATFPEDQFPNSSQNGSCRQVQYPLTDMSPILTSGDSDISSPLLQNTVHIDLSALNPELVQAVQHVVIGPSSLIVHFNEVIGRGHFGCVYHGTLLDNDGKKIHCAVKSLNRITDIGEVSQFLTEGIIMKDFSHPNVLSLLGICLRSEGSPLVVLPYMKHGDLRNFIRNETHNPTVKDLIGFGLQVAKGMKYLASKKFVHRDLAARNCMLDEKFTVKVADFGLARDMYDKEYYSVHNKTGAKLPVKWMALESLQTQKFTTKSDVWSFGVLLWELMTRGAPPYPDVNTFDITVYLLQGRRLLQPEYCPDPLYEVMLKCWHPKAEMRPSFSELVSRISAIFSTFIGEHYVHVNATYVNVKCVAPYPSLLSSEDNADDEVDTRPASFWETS

B1: Ling-Zhi-8 (natural protein, Ganoderma lucidium, UniProt P14945 1-111, looked up)
chain: MSDTALIFRLAWDVKKLSFDYTPNWGRGNPNNFIDTVTFPKVLTDKAYTYRVAVSGRNLGVKPSYAVESDGSQKVNFLEYNSGYGIADTNTIQVFVVDPDTNNDFIIAQWN
B1 was tested, and the “decrease in phosphorylated ERK in HCC413, LZ-8 0.2 and 0.8 uM, 24 h; Western blot” value (shortened to “decrease in phosphorylated ERK in HCC413”) (c-Met) was 85 to 90%, the “phosphorylated JNK in HCC413, LZ-8 0.2 and 0.8 uM, 24 h; Western blot” value (“phosphorylated JNK in HCC413” below) (c-Met) was 50% and the “phosphorylated c-jun in HCC413, LZ-8 0.2 and 0.8 uM, 24 h; Western blot” value (from here on “phosphorylated c-jun in HCC413”) (c-Met) was 75%. For the same binder, the “decrease in phosphorylated ERK in HCC413” value (EGFR) was 85 to 90%, the “phosphorylated JNK in HCC413” value (EGFR) was 50% and the “phosphorylated c-jun in HCC413” value (EGFR) was 75%. For the same binder, the “decrease in phosphorylated ERK in HCC413” value (HER3) was 85 to 90%, the “phosphorylated JNK in HCC413” value (HER3) was 50% and the “phosphorylated c-jun in HCC413” value (HER3) was 75%.
